Source: patent publication US20150105324A1 (INDIANA UNIVERSITY RESEARCH AND TECHNOLOGY, published 2015)

Biological target: biotinylated PSD95 (PDZ domains 1-3, residues 1-435 of human PSD95, fused to a biotin acceptor peptide) (human, UniProt P78352 1-435, biotin at its internal biotin acceptor site)
Sequence (P78352 1-435): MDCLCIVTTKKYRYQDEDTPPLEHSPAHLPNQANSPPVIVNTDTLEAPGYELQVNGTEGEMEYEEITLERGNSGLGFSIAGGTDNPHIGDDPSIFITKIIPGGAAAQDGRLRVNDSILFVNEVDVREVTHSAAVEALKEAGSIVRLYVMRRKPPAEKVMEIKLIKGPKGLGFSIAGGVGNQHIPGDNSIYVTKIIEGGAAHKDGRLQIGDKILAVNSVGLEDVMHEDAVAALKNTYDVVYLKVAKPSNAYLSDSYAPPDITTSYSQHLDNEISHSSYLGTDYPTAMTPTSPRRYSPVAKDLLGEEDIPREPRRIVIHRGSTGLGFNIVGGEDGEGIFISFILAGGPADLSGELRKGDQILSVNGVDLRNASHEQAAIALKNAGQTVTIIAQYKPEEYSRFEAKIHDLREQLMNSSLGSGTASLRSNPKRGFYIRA

B1: Tat-nNOS (1-299) fusion protein (other)
chain: YGRKKRRQRRRMEDHMFGVQQIQPNVISVRLFKRKVGGLGFLVKERVSKPPVIISDLIRGGAAEQSGLIQAGDIILAVNGRPLVDLSYDSALEVLRGIASETHVVLILRGPEGFTTHLETTFTGDGTPKTIRVTQPLGPPTKAVDLSHQPPAGKEQPLAVDGASGPGNGPQHAYDDGQEAGSLPHANGLAPRPPGQDPAKKATRVSLQGRGENNELLKEIEPVLSLLTSGSRGVKGGAPAKAEMKDMGIQVDRDLDGKSHKPLPLGVENDRVFNDLWGKGNVPVVLNNPYSEKEQPPTSGKQSPTKNGSP
  IC50: 300 nM
